# ± gives the standard deviation of the averaged measurements.
# Test system: ATP
# Assay: switch fluorescence ratio, 500 uM ATP over buffer (Cy3 cluster intensity, sum of 5 cycles each) (fold (ratio)); higher = stronger signal-on switching upon ATP binding; sequences stand for … in TCGTCGGCAGCGTCAGATGTGTATAAGAGACAGTTTTTTTTTTTTTTTTTTTTTTTTT…TC
# Settings: aptamer strand: ATP DNA aptamer (quencher-CACCTGGGGGAGTATTGCGGAGGAAGG + anchor), 100 nM annealed; ATP concentration: 500 uM
# Summary of the method: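 Clusters carrying Cy3-labelled switching strands on a modified Illumina MiSeq flow-cell were annealed to 100 nM quencher-labelled ATP aptamer and imaged in selection buffer. They were imaged again after 15 min with 500 uM ATP at 22 °C, over five buffer/ATP cycles with NaOH stripping and re-annealing in between. For each cluster, the fluorescence ratio is the summed Cy3 intensity of the target cycles divided by that of the buffer cycles, averaged per switch-domain sequence. Clusters outside 100-1000 RFU were left out.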
# 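Also: ATP exposure 15 min at 22 °C before imaging.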
row,Sequence,switch fluorescence ratio
1,TTGGGAAGGG,1 ± 0.032
2,TTGGGAAGTT,1.02 ± 0.031
3,TTGGGAATCC,1.03 ± 0.12
4,TTGGGACAGC,1.003 ± 0.0014
5,TTGGGACTGG,1.12 ± 0.14
6,TTGGGAGGAT,1.12 ± 0.2
7,TTGGGAGTAC,0.942 ± 0.059
8,TTGGGATAGG,1.01 ± 0.029
9,TTGGGATCCG,0.985 ± 0.016
10,TTGGGATGGT,1.02 ± 0.029
11,TTGGGATTAA,1.05 ± 0.053
12,TTGGGATTCT,0.979 ± 0.019
13,TTGGGCAGTT,0.98 ± 0.051
14,TTGGGCATCT,1.003 ± 0.0031
15,TTGGGCCACG,0.983 ± 0.011
16,TTGGGCCATG,1.05 ± 0.027
17,TTGGGCCCCT,0.9967 ± 0.0024
18,TTGGGCCCGG,0.9878 ± 0.0073
19,TTGGGCGAAT,0.988 ± 0.021
20,TTGGGCGCAT,0.99 ± 0.025
21,TTGGGCGGTT,1.13 ± 0.25
22,TTGGGCGTTC,1.12 ± 0.15
23,TTGGGCTAAT,0.994 ± 0.029
24,TTGGGGAA,0.985 ± 0.025
25,TTGGGGAACC,0.9866 ± 0.009

row,Sequence,switch fluorescence ratio
1,TTGGGGAAG,0.9853 ± 0.0061
2,TTGGGGACGG,1 ± 0.038
3,TTGGGGAGGC,0.9835 ± 0.0015
4,TTGGGGAGGG,1.02 ± 0.05
5,TTGGGGAGTG,0.988 ± 0.017
6,TTGGGGATGA,1.01 ± 0.016
7,TTGGGGATTT,0.997 ± 0.029
8,TTGGGGCAGC,0.995 ± 0.013
9,TTGGGGCAGT,0.997 ± 0.035
10,TTGGGGCGGG,1.01 ± 0.039
11,TTGGGGGAAA,1 ± 0.02
12,TTGGGGGCA,1.03 ± 0.045
13,TTGGGGGCGC,1.01 ± 0.031
14,TTGGGGGCGT,1.03 ± 0.058
15,TTGGGGGGA,0.997 ± 0.048
16,TTGGGGGGCA,1.32 ± 0.65
17,TTGGGGGGTC,1 ± 0.034
18,TTGGGGGTAA,0.987 ± 0.018
19,TTGGGGGTGA,1 ± 0.042
20,TTGGGGGTTG,1 ± 0.044
21,TTGGGGGTTT,1.02 ± 0.036
22,TTGGGGTAAA,1.03 ± 0.044
23,TTGGGGTAAG,0.971 ± 0.03
24,TTGGGGTCGA,0.951 ± 0.04
25,TTGGGGTGCC,1.01 ± 0.018

row,Sequence,switch fluorescence ratio
1,TTGGGGTGTT,1 ± 0.031
2,TTGGGGTTTC,0.998 ± 0.033
3,TTGGGTAGAA,0.986 ± 0.045
4,TTGGGTCAGG,1.02 ± 0.028
5,TTGGGTGAGT,1.01 ± 0.014
6,TTGGGTGGCA,1.03 ± 0.039
7,TTGGGTTAAC,0.9737 ± 0.006
8,TTGGGTTCCC,1.01 ± 0.05
9,TTGGGTTGCG,0.964 ± 0.035
10,TTGGGTTGGA,0.996 ± 0.017
11,TTGGGTTTAC,1.02 ± 0.049
12,TTGGGTTTCA,0.995 ± 0.053
13,TTGGTACTGA,1.04 ± 0.049
14,TTGGTAGATT,0.984 ± 0.047
15,TTGGTAGGTG,1.04 ± 0.058
16,TTGGTCAAAT,1.04 ± 0.022
17,TTGGTCAAGG,0.995 ± 0.045
18,TTGGTCGCGG,0.97078 ± 5.7e-05
19,TTGGTCGGGT,1.02 ± 0.024
20,TTGGTCTATG,0.986 ± 0.027
21,TTGGTCTTTT,0.976 ± 0.012
22,TTGGTGACGC,1.01 ± 0.026
23,TTGGTGATGT,0.994 ± 0.044
24,TTGGTGGCGT,0.995 ± 0.01
25,TTGGTGGGAA,1 ± 0.025

row,Sequence,switch fluorescence ratio
1,TTGGTGGTTG,0.993 ± 0.029
2,TTGGTGTAAG,1.0001 ± 0.00079
3,TTGGTGTCAG,1.02 ± 0.018
4,TTGGTGTCGG,0.974 ± 0.036
5,TTGGTGTTCT,1.08 ± 0.039
6,TTGGTTACAC,1.006 ± 0.0013
7,TTGGTTACAT,0.994 ± 0.013
8,TTGGTTGTAA,1.03 ± 0.059
9,TTGGTTTGAG,1.016 ± 0.0031
10,TTGGTTTGTT,0.982 ± 0.018
11,TTGGTTTTAT,1.02 ± 0.014
12,TTGGTTTTTG,1 ± 0.037
13,TTGTAAAATA,0.978 ± 0.058
14,TTGTAAATGA,1.02 ± 0.015
15,TTGTAAGATC,1.02 ± 0.029
16,TTGTAAGGGG,1.009 ± 0.0031
17,TTGTAAGTT,0.99664 ± 0.00012
18,TTGTAATTCT,1.167 ± 0.0018
19,TTGTACCATA,1.1 ± 0.071
20,TTGTAGAATG,0.9821 ± 0.0066
21,TTGTAGCACG,1.07 ± 0.037
22,TTGTAGGGCC,1.03 ± 0.022
23,TTGTAGTCGG,1 ± 0.053
24,TTGTATAAA,1 ± 0.022
25,TTGTATACCT,1.17 ± 0.02

row,Sequence,switch fluorescence ratio
1,TTGTATAGGA,0.998 ± 0.029
2,TTGTATGAGT,0.986 ± 0.025
3,TTGTATGGGG,0.984 ± 0.033
4,TTGTATGTAC,1.22 ± 0.13
5,TTGTATGTCT,0.991 ± 0.044
6,TTGTATTAGT,0.9835 ± 0.0093
7,TTGTATTCGG,1 ± 0.03
8,TTGTATTTGT,0.999 ± 0.031
9,TTGTCAGCGT,0.997 ± 0.012
10,TTGTCCGAGC,1.06 ± 0.023
11,TTGTCCGTAG,1.0583 ± 0.00024
12,TTGTCCTTTG,0.993 ± 0.013
13,TTGTCTGTCC,0.98 ± 0.018
14,TTGTGAACTT,0.9794 ± 0.0046
15,TTGTGAATAT,1 ± 0.044
16,TTGTGAGCAA,1.33 ± 0.11
17,TTGTGAGGGA,0.9946 ± 0.0034
18,TTGTGAGTCT,1.01 ± 0.011
19,TTGTGATCGG,0.978 ± 0.03
20,TTGTGATTTT,1.02 ± 0.048
21,TTGTGGAACG,0.989 ± 0.019
22,TTGTGGAGAA,1.04 ± 0.072
23,TTGTGGATTA,1 ± 0.027
24,TTGTGGCCGG,0.978 ± 0.045
25,TTGTGGCGGA,1.0229 ± 0.00038

row,Sequence,switch fluorescence ratio
1,TTGTGGCTGG,0.96 ± 0.035
2,TTGTGGGGTC,1 ± 0.036
3,TTGTGGGTAT,0.954 ± 0.013
4,TTGTGGGTTT,1.05 ± 0.2
5,TTGTGGTAAG,0.992 ± 0.022
6,TTGTGGTCCT,0.974 ± 0.029
7,TTGTGGTCGG,0.982 ± 0.036
8,TTGTGTAAGC,1.01 ± 0.038
9,TTGTGTAGCT,1.02 ± 0.0057
10,TTGTGTATTT,1.001 ± 0.0098
11,TTGTGTCGCT,1.0031 ± 0.0004
12,TTGTGTGGGA,1.02 ± 0.026
13,TTGTGTGGGG,1.01 ± 0.034
14,TTGTGTTTGT,1 ± 0.03
15,TTGTTAAGGC,1.02 ± 0.037
16,TTGTTAATCG,0.984 ± 0.011
17,TTGTTAGTCA,1.0317 ± 4.4e-05
18,TTGTTAGTTA,1.01 ± 0.015
19,TTGTTATCGG,1.04 ± 0.04
20,TTGTTATGCG,0.995 ± 0.012
21,TTGTTATGGC,0.9795 ± 0.0059
22,TTGTTATGGT,1 ± 0.025
23,TTGTTATTTA,0.9903 ± 0.0019
24,TTGTTCCAAT,0.989 ± 0.012
25,TTGTTCGGAG,1.0006 ± 0.00036

row,Sequence,switch fluorescence ratio
1,TTGTTCGGTT,0.998 ± 0.024
2,TTGTTCTTTT,1.07 ± 0.077
3,TTGTTGAATT,0.98 ± 0.042
4,TTGTTGATGC,1.14 ± 0.021
5,TTGTTGGCCG,0.9637 ± 0.0078
6,TTGTTTAAAA,1.01 ± 0.049
7,TTGTTTAAAG,0.9764 ± 0.0021
8,TTGTTTAACG,0.99757 ± 0.00042
9,TTGTTTACCC,0.9713 ± 0.0036
10,TTGTTTATAA,1.02 ± 0.083
11,TTGTTTATCA,0.9865 ± 0.0096
12,TTGTTTCGTT,0.9804 ± 0.0073
13,TTGTTTCTCT,0.959 ± 0.016
14,TTGTTTGATG,1.01 ± 0.011
15,TTGTTTGCGA,0.999 ± 0.01
16,TTGTTTGGAT,1.01 ± 0.05
17,TTGTTTGGCA,0.991 ± 0.025
18,TTGTTTGTAG,1.03 ± 0.052
19,TTGTTTGTTT,0.997 ± 0.035
20,TTGTTTTCCG,1.02 ± 0.014
21,TTGTTTTCGC,1.04 ± 0.046
22,TTGTTTTGAG,0.994 ± 0.013
23,TTGTTTTGTA,0.992 ± 0.024
24,TTGTTTTTAT,0.992 ± 0.03
25,TTTAAAACTT,2.03 ± 1.4

row,Sequence,switch fluorescence ratio
1,TTTAAAAGCT,1.07 ± 0.038
2,TTTAAAAGGC,1.01 ± 0.028
3,TTTAAAAGTC,1.07 ± 0.086
4,TTTAAAATGT,1.12 ± 0.25
5,TTTAAAATTA,0.9978 ± 0.0042
6,TTTAAAATTT,1.01 ± 0.041
7,TTTAAACGGT,1.03 ± 0.042
8,TTTAAAGA,0.991 ± 0.01
9,TTTAAAGCGC,1.02 ± 0.043
10,TTTAAAGCTT,1.01 ± 0.032
11,TTTAAATAGC,0.9742 ± 0.00053
12,TTTAAATTG,1 ± 0.05
13,TTTAAATTTG,1.018 ± 0.0054
14,TTTAACAGGT,1.03 ± 0.023
15,TTTAACATCA,0.984 ± 0.047
16,TTTAACTAGC,1.034 ± 0.0063
17,TTTAAGACAC,1.03 ± 0.022
18,TTTAAGAGCT,0.997 ± 0.015
19,TTTAAGCACG,1.09 ± 0.041
20,TTTAAGCGAT,1.03 ± 0.015
21,TTTAAGCTGG,0.99 ± 0.017
22,TTTAAGGAGG,1.03 ± 0.071
23,TTTAAGGGGA,0.996 ± 0.013
24,TTTAAGGTAG,0.993 ± 0.018
25,TTTAAGGTAT,0.957 ± 0.023

# — the supplement of paper PMC10126150
